Assay results reported in patent US20030180892A1.

Molecular target: IL-17-like receptor (on the BIAcore surface)
Assay: BIAcore (SPR), negative control conditioned media

response (RU): 20 RU
Substance: pC4 control conditioned media
